# Patent publication US7105488B1, “G protein-coupled receptor antagonists” (priority 1998, dated 2006)
# Where a SMILES comes first, the peptide text is derived from it. Where no end group is shown, it is not given here. rhodamine = not defined here; Rhod = not defined here
# Assays:
# [1] = biological target: CXCR4 receptor (Homo sapiens, UniProt P61073); experiment: Inhibition of SDF-1α-induced intracellular calcium release (Fura-2/AM) in HeLa and U87 cells; format: cell-based; details: for Decrease in antagonist potency relative to F-2-2: structure-activity of TM2 peptides
# Chain of CXCR4 receptor (Homo sapiens, UniProt P61073) (P61073 whole entry): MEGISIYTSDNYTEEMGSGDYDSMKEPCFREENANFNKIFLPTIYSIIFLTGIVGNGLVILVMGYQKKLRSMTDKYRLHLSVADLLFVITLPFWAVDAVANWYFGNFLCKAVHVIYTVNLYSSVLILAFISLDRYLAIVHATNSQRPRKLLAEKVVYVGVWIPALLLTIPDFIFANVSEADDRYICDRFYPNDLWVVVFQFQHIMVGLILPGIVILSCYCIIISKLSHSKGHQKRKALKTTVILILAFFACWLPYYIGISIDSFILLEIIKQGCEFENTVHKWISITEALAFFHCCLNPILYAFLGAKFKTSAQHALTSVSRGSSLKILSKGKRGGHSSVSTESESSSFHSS
# Experimental: The effect of the peptides on CXCR4-mediated calcium fluxes in HeLa cells that naturally express the CXCR4 receptor and U87 cells stably expressing the CXCR4 receptor was tested as follows. Cells grown on Nunc cover glass chamber slides were incubated with 1 micromolar Fura-2/AM for 20 min in a CO2-incubator, rinsed with PBS and mounted on the stage of a Zeiss Axiovert inverted microscope. [Ca^2+]i measurements were performed using an Attofluor digital imaging system (Atto Instruments, Rockville, Md.). Fluorescence of Fura was excited at alternating wavelength of 340 and 380 nm. […] Calibrations of [Ca^2+]i signals were performed using Ca^2+ standards containing 1 micromolar Fura. CXCR4 antagonists were tested on HeLa cells and U87 cells. Stromal cell-derived factor-1α (SDF-1α) was used as a specific CXCR4 agonist. CCR5 antagonists, which were used in selectivity studies as described below, were tested on HEK (human kidney […]) cells stably expressing the CCR5 receptor and RANTES was used as an agonist. The antagonist activity of the peptides was evaluated by measuring the inhibition of agonist-evoked intracellular Ca^2+i release. These measurements were carried out in Fura-2/AM-treated cells, utilizing an Attofluor digital imaging system as described above. The agonist was SDF-1 α.
# [2] = biological target: T1, CXCR4 receptor (UniProt P61073 1-352, limits assumed); experiment: cell-based or functional assay
# T1 sequence (P61073 whole entry): as above
# [3] = biological target: T1, CXCR4 receptor; experiment: cell-based or functional assay; remark: listed apart in the source
# [4] = biological target: T1, CXCR4 receptor; experiment: cell-based or functional assay; remark: listed apart in the source
molecule,measurement,setting,value
CC[C@H](C)[C@H](NC(=O)CNC(=O)[C@@H](NC(=O)[C@H](Cc1ccc(O)cc1)NC(=O)[C@H](Cc1ccc(O)cc1)NC(=O)[C@@H]1CCCN1C(=O)[C@H](CC(C)C)NC(=O)[C@H](Cc1c[nH]c2ccccc12)NC(=O)[C@H](CS)NC(=O)[C@H](C)NC(=O)[C@H](Cc1ccccc1)NC(=O)[C@H](Cc1ccccc1)NC(=O)[C@H](C)NC(=O)[C@H](CC(C)C)NC(=O)[C@@H](NC(=O)[C@H](CC(C)C)NC(=O)[C@@H](NC(=O)[C@@H](N)C(C)C)[C@@H](C)CC)[C@@H](C)CC)[C@@H](C)CC)C(=O)N[C@@H](CO)C(=O)N[C@H](C(=O)N[C@@H](CC(=O)O)C(=O)O)[C@@H](C)CC [Peptide F-6-1] (H-VILILAFFACWLPYYIGISID-OH; N-terminus and C-terminus assumed),"Concentration, required for inhibition of signal transduction","[1]; SDF-1α-induced intracellular calcium release, Table 2",10 µM
AcLLFVITLPFWAVDAVANWYFGNDDK(Rhod)D (Ac-LLFVITLPFWAVDAVANWYFGNDDK(rhodamine)D; reading uncertain) [Rhod - AcF-2-2],"Concentration, required for complete inhibition of [Ca^2+I] release","[1]; TM2-derived peptides, Table 3",8 µM
DDIFLPTIYSIIFLTGIV-HN2 (DDIFLPTIYSIIFLTGIV-NH2) [Peptide F-1-5],"Concentration, required for complete inhibition of [Ca^2+I] release","[1]; SDF-1α-induced, Table 1",>30 µM
KAVHVIYTVNLYSSVLILAFISL-NH2 [Peptide F-3-1],"Concentration, required for complete inhibition of [Ca^2+I] release","[1]; SDF-1α-induced, Table 1",>50 µM
KVYVGVWIPALLLTLPDFIF (KVYVGVWIPALLLTIPDFIF; F-4-1 GPCR CXCR4) [Peptide F-4-1],"Antagonist activity on CXCR4 signaling, in words",[1],abolished the antagonist activity
same,"Concentration, required for complete inhibition of [Ca^2+I] release","[1]; SDF-1α-induced, Table 1",>50 µM
LLFVITLPFWAVDAVANDD (F-2-5 GPCR CXCR4) [Peptide F-2-5],"Concentration, required for complete inhibition of [Ca^2+I] release","[1]; TM2-derived peptides, Table 3",10 µM
LLFVITLPFWAVDAVANWYFGN (F-2-1 GPCR CXCR4) [Peptide F-2-1],"Concentration, required for complete inhibition of [Ca^2+I] release","[1]; TM2-derived peptides, Table 3",5 µM
same,Decrease in antagonist potency relative to F-2-2,[1],more than ten-fold
LLFVITLPFWAVDAVANWYFGNKK (F-2-8 GPCR CXCR4) [Peptide F-2-8],"Concentration, required for complete inhibition of [Ca^2+I] release","[1]; TM2-derived peptides, Table 3",20 µM
VITLPFWAVDAVANWYFGNKK (F-2-4 GPCR CXCR4) [Peptide F-2-4],"Concentration, required for complete inhibition of [Ca^2+I] release","[1]; TM2-derived peptides, Table 3",>50 µM
same,Decrease in antagonist potency relative to F-2-2,[1],20 fold
VYVGVWIPALLLTIPDFIFANDD [F-4-2],"Concentration, required for inhibition of signal transduction (µM) (SDF-1α-induced intracellular calcium release)",[2],5 µM
same,"EC50 in anti-HIV-1 assay (µM) (cytoprotection, CEM-SS cells infected with HIV-1RF)",[2],0.3 µM
VITLPFWAVDAVANWYFGNKK [F-2-4],"Concentration, required for complete inhibition of [Ca^2+I] release",[3],> 50 µM
Ac-LLFVITLPFWAVDAVANDD [AcF-2-5],"Concentration, required for complete inhibition of [Ca^2+I] release",[3],10 µM
LLFVITLPFWAVDAVANWYFGNDD [F-2-2],"Concentration, required for inhibition of signal transduction (µM) (SDF-1α-induced intracellular calcium release)",[2],0.2 µM
same,"EC50 in anti-HIV-1 assay (µM) (cytoprotection, CEM-SS cells infected with HIV-1RF)",[2],2.27 µM
same,"Concentration, required for complete inhibition of [Ca^2+I] release",[3],0.2 µM
KVYVGVWIPALLLTIPDFIF [F-4-1],"Concentration, required for complete inhibition of [Ca^2+I] release (SDF-1α-induced)",[4],> 50 µM
LSVADLLFVITLPFWAVDAVANDD [F-2-6],"Concentration, required for complete inhibition of [Ca^2+I] release",[3],20 µM
HIMVGLILPGIVILSCYCIII-NH2 (cysteine pairing not given here) [F-5-1],"Concentration, required for complete inhibition of [Ca^2+I] release (SDF-1α-induced)",[4],> 50 µM
Ac-LLFVITLPFWAVDAVANWYFGNDDK(Rhod)D (reading uncertain) [Rhod - AcF-2-2],"Concentration, required for complete inhibition of [Ca^2+I] release",[3],8 µM
